{
  "source": "patent US10836815B2",
  "about": "“Generation and comparative kinetic analysis of new glycosynthase mutants from Streptococcus pyogenes endoglycosidases for antibody glycoengineering” (UNIVERSITY OF MARYLAND, COLLEGE PARK, priority 2017, dated 2020)",
  "molecules": {"B1": {"name": "Endo-S D233M (protein)", "chain": "MDKHLLVKRTLGCVCAATLMGAALATHHDSLNTVKAEEKTVQVQKGLPSIDSLHYLSENSKKEFKEELSKAGQESQKVKEILAKAQQADKQAQELAKMKIPEKIPMKPLHGPLYGGYFRTWHDKTSDPTEKDKVNSMGELPKEVDLAFIFHDWTKDYSLFWKELATKHVPKLNKQGTRVIRTIPWRFLAGGDNSGIAEDTSKYPNTPEGNKALAKAIVDEYVYKYNLDGLDVMVEHDSIPKVDKKEDTAGVERSIQVFEEIGKLIGPKGVDKSRLFIMDSTYMADKNPLIERGAPYINLLLVQVYGSQGEKGGWEPVSNRPEKTMEERWQGYSKYIRPEQYMIGFSFYEENAQEGNLWYDINSRKDEDKANGINTDITGTRAERYARWQPKTGGVKGGIFSYAIDRDGVAHQPKKYAKQKEFKDATDNIFHSDYSVSKALKTVMLKDKSYDLIDEKDFPDKALREAVMAQVGTRKGDLERFNGTLRLDNPAIQSLEGLNKFKKLAQLDLIGLSRITKLDRSVLPANMKPGKDTLETVLETYKKDNKEEPATIPPVSLKVSGLTGLKELDLSGFDRETLAGLDAATLTSLEKVDISGNKLDLAPGTENRQIFDTMLSTISNHVGSNEQTVKFDKQKPTGHYPDTYGKTSLRLPVANEKVDLQSQLLFGTVTNQGTLINSEADYKAYQNHKIAGRSFVDSNYHYNNFKVSYENYTVKVTDSTLGTTTDKTLATDKEETYKVDFFSPADKTKAVHTAKVIVGDEKTMMVNLAEGATVIGGSADPVNARKVFDGQLGSETDNISLGWDSKQSIIFKLKEDGLIKHWRFFNDSARNPETTNKPIQEASLQIFNIKDYNLDNLLENPNKFDDEKYWITVDTYSAQGERATAFSNTLNNITSKYWRVVFDTKGDRYSSPVVPELQILGYPLPNADTIMKTVTTAKELSQQKDKFSQKMLDELKIKEMALETSLNSKIFDVTAINANAGVLKDCIEKRQLLKK"}},
  "type_in_all_cases": "biochemical",
  "key": {"[1]": {"tested_on": "rituximab", "assay": "Hydrolysis activity assay of Endo-S and D233 mutants, LC-ESI-MS", "protocol": "(§1) The hydrolytic activity of the mutants generated was evaluated using rituximab as the substrate, and the transglycosylation activity was evaluated using the sugar oxazoline and the deglycosylated rituximab as the donor and acceptor substrates, respectively (Scheme 1).\n(§2) The LC-MS characterization of different antibody glycoforms was conducted on an Exactive Plus Orbitrap instrument (Thermo Scientific). The intact antibody sample was analyzed with a Waters XBridge™ BEH300 C4 column (3.5 μm, 2.1×50 mm). The program includes a 9 min linear gradient of 5-90% MeCN containing 0.1% formic acid at a flow rate of 0.4 mL/min. The original mass data were processed through deconvolution and integration through MagTran Software (Amgen).\n(§3) Peptide-N-Glycosidase F (PNGase F) treated rituximab was used as the internal standard due to its similarities to the deglycosylated and transferred product in terms of their molecular structures and ionization efficiencies. After PNGase F treatment, a mutation will be introduced into the amino acid sequence of rituximab so the product antibody will not interfere with the reaction via re-glycosylation^35. A standard product S2G2F-rituximab was synthesized following the previously reported procedure^29. […] Serial dilutions containing a gradient of S2G2F-rituximab (0, 0.25, 0.5, 0.75, 1.0, 1.25 and 1.5 μM) were mixed with a stock solution containing 0.67 μM internal standard. These mixed sample solutions were quantified by selected ion monitoring (SIM) to calculate the single-point normalization factor^31. The factor could then be used to calculate the relative amount of the final product N-glycoform for each reaction in the following experiments.\n(§4) The hydrolytic activity of each Endo-S mutants and the wild-type (0.01 mg/mL) was assayed in PBS (pH 7.4, 10 μl) at 30° C. with synthetic biantennary sialo-complex-type rituximab (1.0 mg/mL, 6.9 μM) as the starting material. Each reaction was terminated at 5 min and an aliquot was taken from the reaction mixture and dissolved in 0.1% formic acid. The relative quantity of the hydrolysis product was calculated through deconvolution and integration of the selected MS peaks. The experimental details of product quantification using LC-MS are illustrated below. The transglycosylation activity of Endo-S was measured in a similar fashion: deglycosylated Rituximab (10.0 mg/mL, 69 μM) was incubated with SCT-Oxa (1.38 mM, 20 eq) under catalysis of Endo-S enzymes (0.01 mg/mL) under the same condition as hydrolysis. The transglycosylation product SCT-Rituximab was analyzed as mentioned above. Both functional assays were repeated twice for each mutant and the wild-type, and the average activity was recorded"}, "[2]": {"tested_on": "deglycosylated rituximab", "assay": "Transglycosylation activity assay of Endo-S and D233 mutants, LC-ESI-MS", "protocol": "as §1, §2, §3, §4"}, "[3]": {"assay": "Kinetic measurements (KM, Vmax) of Endo-S/Endo-S2 mutants for SCT-Oxa", "protocol": "Using a sialylated glycan oxazoline (SCT-Oxa) as the donor and the deglycosylated rituximab as the acceptor substrate, we measured the kinetic parameters of the enzyme catalyzed glycosylation were measured. A mass spectrometry-based approach with an internal standard was used to estimate the product formation.^31-33.\nas §3\nMeasurements of KM and Vmax for SCT-oxa. Serial dilutions with a total volume of 10 μL were prepared with a gradient of SCT-oxa concentrations and a constant deglycosylated antibody concentration mixed in PBS, pH 7.4. Each reaction was initiated by adding 1μμL, of Endo-S/S2 mutants with a concentration of 0.1 mg/M1 and the reaction was conducted at 30° C. The concentrations of SCT-oxa were within a range from 6.25 μM to 400 μM. For each reaction, three aliquots were taken at t=1, 2 and 3 min and immediately quenched in 100 μL 0.1% formic acid. The quenched reaction samples were then characterized by ESI-MS, and the concentration of product in each mixture was calculated using the normalization factor, as shown above. […] The KM and Vmax were measured by fitting the initial velocity against the SCT-oxa concentration using the GraphPad Prism7 program. The experiments were conducts in triplicate to determine the error in these measurements."}, "[4]": {"tested_on": "deglycosylated rituximab", "assay": "Kinetic measurements (KM, Vmax) of Endo-S/Endo-S2 mutants for deglycosylated rituximab", "from_the_text": "as §3\nMeasurements of KM and Vmax for SCT-oxa. Serial dilutions with a total volume of 10 μL were prepared with a gradient of SCT-oxa concentrations and a constant deglycosylated antibody concentration mixed in PBS, pH 7.4. Each reaction was initiated by adding 1μμL, of Endo-S/S2 mutants with a concentration of 0.1 mg/M1 and the reaction was conducted at 30° C. The concentrations of SCT-oxa were within a range from 6.25 μM to 400 μM. For each reaction, three aliquots were taken at t=1, 2 and 3 min and immediately quenched in 100 μL 0.1% formic acid. The quenched reaction samples were then characterized by ESI-MS, and the concentration of product in each mixture was calculated using the normalization factor, as shown above. A linear progression curve was confirmed for each reaction by sampling at multiple early time points and plotting them in the same graph, which emphasized that the V0 measured indeed represents the initial rate of each reaction. The KM and Vmax were measured by fitting the initial velocity against the SCT-oxa concentration using the GraphPad Prism7 program. The experiments were conducts in triplicate to determine the error in these measurements.\nThe KM and Vmax values of both Endo-S and Endo-S2 mutants for the deglycosylated antibody substrate were measured in a similar fashion as to those for SCT-Oxa. In the serial reactions, the concentrations of antibody range from 0.313 μM to 20 μM, whereas the SCT-Oxa concentration was fixed at 400 μM. A similar control reaction was also performed for each concentration to monitor the non-enzymatic side reactions."}, "[5]": {"tested_on": "deglycosylated rituximab", "assay": "Time-course comparison of transglycosylation with SCT-Oxazoline monitored by LC-ESI-MS (FIG. 1)", "conditions": "D233M, D233Q, D233A compared with glycan oxazoline under same conditions", "from_the_text": "The data sets presented here are representative of three independent experiments.\nThe parallel reactions were monitored by LC-ESI-MS (FIG. 1)."}, "[6]": {"conditions": "Endo-S mutants, donor substrate SCT-Oxa, PBS pH 7.4, 30° C."}, "[7]": {"conditions": "Endo-S mutants, acceptor substrate deglycosylated rituximab, SCT-Oxa fixed at 400 μM"}},
  "note": "“Also recorded” adds a separate entry of the source.",
  "data": [
    {"molecule": "B1", "values": [
      {"measurement": "Specific Hydrolysis Activity", "setting": "[1]; rituximab 1.0 mg/mL as substrate, enzyme 0.01 mg/mL, PBS pH 7.4, 30° C., 5 min, duplicate", "value": "0.02 100*(μmol/min/mg)"},
      {"measurement": "hydrolysis activity (in words)", "setting": "[1]; rituximab as substrate, compared with wild type Endo-S and other mutants", "value": "remarkably low residual hydrolysis activity"},
      {"measurement": "enhanced synthetic efficiency (T/H) over D233A", "setting": "[2]; based on Table 1", "value": "~8", "unit": "fold"},
      {"measurement": "enhanced synthetic efficiency (T/H) over D233Q", "setting": "[2]; based on Table 1", "value": "approximately 3 fold"},
      {"measurement": "transglycosylation activity (in words)", "setting": "[2]; biantennary complex-type glycan oxazoline to deglycosylated rituximab", "value": "most significant transglycosylation activities; also recorded: relatively high transglycosylation activity"},
      {"measurement": "Transglycosylation Activity", "setting": "[2]; deglycosylated rituximab 10.0 mg/mL, SCT-Oxa 1.38 mM (20 eq), enzyme 0.01 mg/mL, PBS pH 7.4, 30° C., duplicate", "value": "2.71 100*(μmol/min/mg)"},
      {"measurement": "Transglycosylation/Hydrolysis Ratio T/H", "setting": "[2]; ratio of transglycosylation to hydrolysis activity, Table 1", "value": 135.50},
      {"measurement": "overall efficiency for glycoform synthesis (T/H, in words)", "setting": "[2]; ratio of transglycosylation/hydrolysis", "value": "highest overall synthetic efficiency"},
      {"measurement": "Km", "setting": "[3]; [6]", "value": "195 ± 7.21", "unit": "µM"},
      {"measurement": "kcat", "setting": "[3]; [6]", "value": "0.0832 ± 0.0152", "unit": "s⁻¹"},
      {"measurement": "increase in kcat/KM over Endo-S D233A", "setting": "[3]; SCT-Oxa", "value": 3, "unit": "fold"},
      {"measurement": "increase in turnover (kcat) over D233A", "setting": "[3]; SCT-Oxa", "value": "approximately 4 fold"},
      {"measurement": "reduced affinity (KM) versus D233A", "setting": "[3]; SCT-Oxa", "value": "less than 2 fold"},
      {"measurement": "substrate affinity for the deglycosylated antibody (in words)", "setting": "[4]; Asp-to-Met versus Asp-to-Ala mutant", "value": "much higher substrate affinity than the D233A mutant"},
      {"measurement": "Km", "setting": "[4]; [7]", "value": "30.2 ± 7.21", "unit": "µM"},
      {"measurement": "kcat", "setting": "[4]; [7]", "value": "0.0922 ± 0.0318", "unit": "s⁻¹"},
      {"measurement": "Km", "setting": "[4]; Endo-S mutants, acceptor substrate deglycosylated rituximab, SCT-Oxa fixed at 400 μM, listed as D233M", "value": 30, "unit": "µM"},
      {"measurement": "transglycosylation efficiency in time-course (in words)", "setting": "[5]", "value": "more efficient than the previously identified mutants, D233A and D233Q"}
    ]}
  ]
}
